From patent publication US20240254229A1 (Molecular Partners, published 2024)

T1: biotinylated extracellular domain of human CD123 (SEQ ID NO: 88), Fc and Avi tagged (human, UniProt P26951 19-303, biotinylated with BirA-GST (Avi tag))
T1 construct: also called hCD123
T1 sequence: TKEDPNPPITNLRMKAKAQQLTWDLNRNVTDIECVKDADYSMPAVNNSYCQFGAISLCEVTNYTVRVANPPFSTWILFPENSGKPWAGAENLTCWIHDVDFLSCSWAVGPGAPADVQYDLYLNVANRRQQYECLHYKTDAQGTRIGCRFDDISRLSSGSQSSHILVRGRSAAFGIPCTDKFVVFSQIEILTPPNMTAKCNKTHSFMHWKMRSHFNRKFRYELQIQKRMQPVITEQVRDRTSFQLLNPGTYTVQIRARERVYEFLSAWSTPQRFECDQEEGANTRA

T2: extracellular domain of human CD70 (SEQ ID NO: 89), hCD70-Fc-trimer, ACRO Biosystems (human, UniProt P32970 52-193, chemically biotinylated where the biotinylated form was used)
T2 construct: also called human CD70-Fc-trimer; Bio.CD70
T2 sequence: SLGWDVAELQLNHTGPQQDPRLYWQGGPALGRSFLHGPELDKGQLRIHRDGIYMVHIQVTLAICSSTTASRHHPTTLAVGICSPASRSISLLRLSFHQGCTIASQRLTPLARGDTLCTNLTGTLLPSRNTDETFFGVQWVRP

B1: DARPin® protein #47 (designed binder)
chain: DLGKKLLEAARAGQDDEVRELLKAGADVNAKDYFSHTPLHLAARNGHLKIVEVLLKAGADVNAKDFAGKTPLHLAAADGHLEIVEVLLKAGADVNAQDIFGKTPADIAADAGHEDIAEVLQKAAGSPTPTPTTPTPTPTTPTPTPTGSDLGKKLLEAALEGQLDEVRELLKAGADVNAKDQEGYTPLHLAAALGHLEIVEVLLKAGADVNAKDSIGRTPLHLAAYKGHLEIVEVLLKAGADVNAQDLLGETPADLAAEQGHQDIAEVLQKAAGSPTPTPTTPTPTPTTPTPTPTGSDLGVKLLLAASRGQLDEVRILLKAGADVNAKDIDEGYTPLHIAAYYGHLEIVEVLLKAGADVNAKDRYGKTPLHLAAISGHLEIVEVLLKAGADVNAQDDKGDTPADLAADYGHQDIAEVLQKAAGSPTPTPTTPTPTPTTPTPTPTGSDLGQKLLEAAWAGQDDEVRELLKAGADVNAKNSRGWTPLHTAAQTGHLEIFEVLLKAGADVNAKDDKGVTPLHLAAALGHLEIVEVLLKAGADVNAQDSWGTTPADLAAKYGHEDIAEVLQKAA
notes: HSA-CD123-CD33-CD3; not shown: N-terminal His-tag
B2: DARPin® protein #49 (designed binder)
chain: DLGKKLLEAALEGQLDEVRELLKAGADVNAKDQEGYTPLHLAAALGHLEIVEVLLKAGADVNAKDSIGRTPLHLAAYKGHLEIVEVLLKAGADVNAQDLLGETPADLAAEQGHQDIAEVLQKAAGSPTPTPTTPTPTPTTPTPTPTGSDLGVKLLLAASRGQLDEVRILLKAGADVNAKDIDEGYTPLHIAAYYGHLEIVEVLLKAGADVNAKDRYGKTPLHLAAISGHLEIVEVLLKAGADVNAQDDKGDTPADLAADYGHQDIAEVLQKAAGSPTPTPTTPTPTPTTPTPTPTGSDLGQKLLEAAWAGQDDEVRELLKAGADVNAKNSRGWTPLHTAAQTGHLEIFEVLLKAGADVNAKDDKGVTPLHLAAALGHLEIVEVLLKAGADVNAQDSWGTTPADLAAKYGHEDIAEVLQKAAGSPTPTPTTPTPTPTTPTPTPTGSDLGKKLLEAARAGQDDEVRELLKAGADVNAKDYFSHTPLHLAARNGHLKIVEVLLKAGADVNAKDFAGKTPLHLAAADGHLEIVEVLLKAGADVNAQDIFGKTPADIAADAGHEDIAEVLQKAA
notes: CD123-CD33-CD3-HSA; not shown: N-terminal His-tag
B3: DARPin® protein #48 (designed binder)
chain: DLGKKLLEAARAGQDDEVRELLKAGADVNAKDYFSHTPLHLAARNGHLKIVEVLLKAGADVNAKDFAGKTPLHLAAADGHLEIVEVLLKAGADVNAQDIFGKTPADIAADAGHEDIAEVLQKAAGSPTPTPTTPTPTPTTPTPTPTGSDLGKKLLEAARAGQDDEVRELLKAGADVNAKDYFSHTPLHLAARNGHLKIVEVLLKAGADVNAKDFAGKTPLHLAAADGHLEIVEVLLKAGADVNAQDIFGKTPADIAADAGHEDIAEVLQKAAGSPTPTPTTPTPTPTTPTPTPTGSDLGKKLLEAALEGQLDEVRELLKAGADVNAKDQEGYTPLHLAAALGHLEIVEVLLKAGADVNAKDSIGRTPLHLAAYKGHLEIVEVLLKAGADVNAQDLLGETPADLAAEQGHQDIAEVLQKAAGSPTPTPTTPTPTPTTPTPTPTGSDLGVKLLLAASRGQLDEVRILLKAGADVNAKDIDEGYTPLHIAAYYGHLEIVEVLLKAGADVNAKDRYGKTPLHLAAISGHLEIVEVLLKAGADVNAQDDKGDTPADLAADYGHQDIAEVLQKAAGSPTPTPTTPTPTPTTPTPTPTGSDLGQKLLEAAWAGQDDEVRELLKAGADVNAKNSRGWTPLHTAAQTGHLEIFEVLLKAGADVNAKDDKGVTPLHLAAALGHLEIVEVLLKAGADVNAQDSWGTTPADLAAKYGHEDIAEVLQKAA
notes: HSA-HSA-CD123-CD33-CD3; not shown: N-terminal His-tag
B4: DARPin® protein #31 (designed binder)
chain: DLGYKLLQAAYDGQLDEVRILLKAGADVNAKDSRGQTPLHYAASIGHLEIVEVLLKAGADVNAKDDHGWTPLHLAAWSGHLEIVEVLLKAGADVNAQDQEGTTPADLAAVQGHQDIAEVLQKAAGSPTPTPTTPTPTPTTPTPTPTGSDLGKKLLEAALEGQLDEVRELLKAGADVNAKDQEGYTPLHLAAALGHLEIVEVLLKAGADVNAKDSIGRTPLHLAAYKGHLEIVEVLLKAGADVNAQDLLGETPADLAAEQGHQDIAEVLQKAAGSPTPTPTTPTPTPTTPTPTPTGSDLGVKLLRAAVHGQLDEVRILLKAGADVNAKDTDGETPLHYAAQFGHLEIVEVLLKAGADVNAKDAYGATPLHWAAWHGHLEIVEVLLKAGADVNAQDVSGATPADLAAKVGHQDIAEVLQKAAGSPTPTPTTPTPTPTTPTPTPTGSDLGQKLLEAAWAGQDDEVRELLKAGADVNAKNSRGWTPLHTAAQTGHLEIFEVLLKAGADVNAKDDKGVTPLHLAAALGHLEIVEVLLKAGADVNAQDSWGTTPADLAAKYGHEDIAEVLQKAA
notes: CD70-CD123-CD33-CD3; not shown: N-terminal His-tag
B5: DARPin® protein #52 (designed binder)
chain: DLGYKLLQAAYDGQLDEVRILLKAGADVNAKDSRGQTPLHYAASIGHLEIVEVLLKAGADVNAKDDHGWTPLHLAAWSGHLEIVEVLLKAGADVNAQDQEGTTPADLAAVQGHQDIAEVLQKAAGSPTPTPTTPTPTPTTPTPTPTGSDLGVKLLLAASRGQLDEVRILLKAGADVNAKDIDEGYTPLHIAAYYGHLEIVEVLLKAGADVNAKDRYGKTPLHLAAISGHLEIVEVLLKAGADVNAQDDKGDTPADLAADYGHQDIAEVLQKAAGSPTPTPTTPTPTPTTPTPTPTGSDLGQKLLEAAWAGQDDEVRELLKAGADVNAKNSRGWTPLHTAAQTGHLEIFEVLLKAGADVNAKDDKGVTPLHLAAALGHLEIVEVLLKAGADVNAQDSWGTTPADLAAKYGHEDIAEVLQKAAGSPTPTPTTPTPTPTTPTPTPTGSDLGKKLLEAARAGQDDEVRELLKAGADVNAKDYFSHTPLHLAARNGHLKIVEVLLKAGADVNAKDFAGKTPLHLAAADGHLEIVEVLLKAGADVNAQDIFGKTPADIAADAGHEDIAEVLQKAA
notes: not shown: N-terminal His-tag
B6: DARPin® protein #39 (designed binder)
chain: DLGVKLLRAAVHGQLDEVRILLKAGADVNAKDTDGETPLHYAAQFGHLEIVEVLLKAGADVNAKDAYGATPLHWAAWHGHLEIVEVLLKAGADVNAQDVSGATPADLAAKVGHQDIAEVLQKAA
notes: CD33-specific ankyrin repeat domain; not shown: N-terminal His-tag
B7: DARPin® protein #36 (designed binder)
chain: DLGVKLLLAASRGQLDEVRILLKAGADVNAKDIDEGYTPLHIAAYYGHLEIVEVLLKAGADVNAKDRYGKTPLHLAAISGHLEIVEVLLKAGADVNAQDDKGDTPADLAADYGHQDIAEVLQKAA
notes: as for B6

target: T1, biotinylated extracellular domain of …; assay: SPR (ProteOn XPR36), target on GLC chip, DARPin as analyte
Excerpt: (§1) For that, DARPin® protein #27, DARPin® protein #29, DARPin® protein #47 and DARPin® protein #48 and DARPin® protein #49, DARPin® protein #50, DARPin® protein #51, DARPin® protein #52, DARPin® protein #31, DARPin® protein #53, DARPin® protein #54, DARPin® protein #55, DARPin® protein #34, DARPin® protein #33, DARPin® protein #39 and DARPin® protein #36 were subcloned and expressed as described above into derivatives of the pQE30 (Qiagen) expression vector, containing an N-terminal His-tag, CD33, CD123 and/or CD70 binding ankyrin repeat domains, followed by a CD3 specific ankyrin repeat domain and for some constructs by a human serum albumin specific ankyrin repeat domain.
(§2) Briefly, biotinylated human CD70, CD123 and CD33 was diluted in PBST (PBS, pH 7.4 containing 0.005% Tween 20®) and coated on a GLC chip (BioRad) to a level of around 200, 460 and 450 resonance units (RU) respectively. HSA in NaOAc pH 5.0 was directly immobilized on the GLC chip to a level of 800 RU. Bio.CD70, bio. CD33 and bio. CD123 required to have Neutravidin coated first to a level of 6000 RU before the biotinylated targets could be applied. The interaction of the selected ankyrin repeat proteins and human CD70, CD123 and CD33 was then measured by injecting 300 μl running buffer (PBS, pH 7.4 containing 0.005% Tween 20®) containing serial dilutions of ankyrin repeat proteins covering a concentration range between 100 nM and 2.6 nM (100, 40, 16, 6.4 and 2.6 nM respectively) for multi-trace SPR measurements, with an association of 120 s and dissociation of 1200 s using a constant flow of 100 μl/min. The regeneration was performed using 30 μl of 4 mM Glycine pH 2. The signals (i.e. resonance unit (RU) values) of the interspots and a reference injection (i.e. injection of running buffer only) were subtracted from the RU traces obtained after injection of ankyrin repeat protein (double-referencing).

Kd [nM] | Binder
8 | B1
23 | B2
5.1 | B3
10 | B4

target: T2, extracellular domain of human CD70 (SEQ …); assay: as above
Excerpt: as §1, §2

Kd [nM] | Binder
0.27 | B5
0.31 | B4

target: T3, human serum albumin (human, UniProt P02768 25-609); assay: as above
T3 construct: also called HSA; SA
Excerpt: as §1, §2

T3 sequence (P02768 25-609 limits assumed): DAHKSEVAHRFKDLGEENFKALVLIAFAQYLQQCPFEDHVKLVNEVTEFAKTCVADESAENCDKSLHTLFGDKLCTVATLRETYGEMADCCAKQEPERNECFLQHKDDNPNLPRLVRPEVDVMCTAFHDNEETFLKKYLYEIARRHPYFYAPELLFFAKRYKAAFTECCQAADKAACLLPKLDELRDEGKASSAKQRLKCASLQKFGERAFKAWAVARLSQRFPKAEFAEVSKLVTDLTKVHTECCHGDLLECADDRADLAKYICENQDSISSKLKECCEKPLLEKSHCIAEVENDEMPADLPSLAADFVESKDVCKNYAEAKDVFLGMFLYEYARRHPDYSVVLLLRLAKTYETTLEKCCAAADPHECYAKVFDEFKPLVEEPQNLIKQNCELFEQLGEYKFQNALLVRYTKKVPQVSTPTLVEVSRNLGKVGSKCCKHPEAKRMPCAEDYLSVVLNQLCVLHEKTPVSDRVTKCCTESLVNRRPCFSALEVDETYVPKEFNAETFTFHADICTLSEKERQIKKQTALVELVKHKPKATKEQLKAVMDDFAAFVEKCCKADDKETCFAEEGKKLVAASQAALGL

Kd [nM] | Binder
48 | B5
15 | B1
14 | B2
1.1 | B3

target: T4, biotinylated extracellular domain of human CD33 (SEQ ID NO: 87), Fc and Avi tagged (human, UniProt P20138 18-259, biotinylated with BirA-GST (Avi tag)); assay: as above
T4 construct: also called hCD33; human target hCD33
Excerpt: as §1, §2

T4 sequence (P20138 18-259 R69G): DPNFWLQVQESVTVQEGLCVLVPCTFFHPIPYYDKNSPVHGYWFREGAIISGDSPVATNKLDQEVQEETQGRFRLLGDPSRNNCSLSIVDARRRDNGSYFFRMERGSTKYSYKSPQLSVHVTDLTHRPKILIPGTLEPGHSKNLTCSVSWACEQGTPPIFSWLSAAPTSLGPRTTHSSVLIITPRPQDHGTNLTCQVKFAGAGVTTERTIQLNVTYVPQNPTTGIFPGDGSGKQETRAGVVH

Kd [nM] | Binder
5.7 | B5
5.4 | B1
6.8 | B2
24 | B6
4.2 | B3
11 | B4
6.7 | B7

target: T1, biotinylated extracellular domain of …; assay: SPR (ProteOn XPR36), target on GLC chip
Excerpt: as §1, §2

Binder | binding result
B5 | no binding (tested: 100 nM (highest concentration))
B6 | no binding (tested: 100 nM (highest concentration))
B7 | no binding (tested: 100 nM (highest concentration))

target: T2, extracellular domain of human CD70 (SEQ …); assay: SPR (ProteOn XPR36), target on GLC chip
Excerpt: as §1, §2

Binder | binding result
B1 | no binding (tested: 100 nM (highest concentration))
B2 | no binding (tested: 100 nM (highest concentration))
B6 | no binding (tested: 100 nM (highest concentration))
B3 | no binding (tested: 100 nM (highest concentration))
B7 | no binding (tested: 100 nM (highest concentration))

target: T3, human serum albumin; assay: SPR (ProteOn XPR36), target on GLC chip
Excerpt: as §1, §2

Binder | binding result
B6 | no binding (tested: 100 nM (highest concentration))
B4 | no binding (tested: 100 nM (highest concentration))
B7 | no binding (tested: 100 nM (highest concentration))
